# Substitutions are numbered along the chain they refer to. Names and notes keep the numbering of the source.
# T1: human CX3CR1 (human, UniProt P49238 1-355)
# T1 construct: overexpressed on CHO, BA/F3 or HEK293T cells; also called huCX3CR1; hCX3CR1
# T1 sequence: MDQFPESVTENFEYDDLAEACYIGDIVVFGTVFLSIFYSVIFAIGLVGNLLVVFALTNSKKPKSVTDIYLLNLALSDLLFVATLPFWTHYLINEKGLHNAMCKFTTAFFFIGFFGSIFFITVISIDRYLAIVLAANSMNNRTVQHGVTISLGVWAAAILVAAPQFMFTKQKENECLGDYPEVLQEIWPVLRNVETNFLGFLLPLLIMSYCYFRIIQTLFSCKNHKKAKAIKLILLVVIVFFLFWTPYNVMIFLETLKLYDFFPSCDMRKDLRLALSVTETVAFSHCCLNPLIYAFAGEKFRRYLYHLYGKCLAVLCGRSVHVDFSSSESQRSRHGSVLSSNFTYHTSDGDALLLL
# T2: cynomolgus CX3CR1 (cynomolgus, UniProt P49238 1-355 (human entry))
# T2 construct: transiently expressed on HEK293T cells; also called cyCX3CR1; cyno CX3CR1
# T2 chain: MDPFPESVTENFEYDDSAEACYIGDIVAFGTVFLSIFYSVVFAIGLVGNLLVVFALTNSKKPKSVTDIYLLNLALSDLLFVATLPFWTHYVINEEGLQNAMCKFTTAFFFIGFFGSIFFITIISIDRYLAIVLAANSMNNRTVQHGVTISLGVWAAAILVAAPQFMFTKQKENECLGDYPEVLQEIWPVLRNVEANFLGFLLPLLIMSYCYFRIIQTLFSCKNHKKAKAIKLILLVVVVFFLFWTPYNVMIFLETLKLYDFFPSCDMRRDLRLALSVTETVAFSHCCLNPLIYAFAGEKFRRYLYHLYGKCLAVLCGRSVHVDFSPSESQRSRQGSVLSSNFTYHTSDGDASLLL
# B1: C100CX3CR1BII043 (VHH)
# VHH: EVQLVESGGGSVQPGESLRLSCAASGSIFSSNAMAWYRQAPGKRRDLVAAINSVGVTKYADSVKGRFTISRDNSKNTVYLQMNSLRPEDTAVYYCTSDPRRGWDTRYWGQGTLVTVSS
# notes: 66B02 with A14P, A74S, K83R, Q108L; not shown: myc/His tag
# B2: C100CX3CR1BII056 (VHH)
# VHH: B1 VHH with S11L, E16G, R44Q
# notes: 66B02 with S11L, A14P, E16G, R44Q, A74S, K83R, Q108L; not shown: myc/His tag
# B3: C100CX3CR1BII060 (VHH)
# VHH: B1 VHH with S11L, E16G, R44Q, D46E
# notes: 66B02 with S11L, A14P, E16G, R44Q, D46E, A74S, K83R, Q108L; not shown: myc/His tag
# B4: C100CX3CR1BII045 (VHH)
# VHH: B1 VHH with E1D
# notes: 66B02 with E1D, A14P, A74S, K83R, Q108L; not shown: myc/His tag
# B5: C100CX3CR1BII049 (VHH)
# VHH: B1 VHH with R44Q
# notes: 66B02 with A14P, R44Q, A74S, K83R, Q108L; not shown: myc/His tag
# B6: C100CX3CR1BII057 (VHH)
# VHH: B1 VHH with S11L, E16G, D46E
# notes: 66B02 with S11L, A14P, E16G, D46E, A74S, K83R, Q108L; not shown: myc/His tag
# B7: C100CX3CR1BII048 (VHH)
# VHH: B1 VHH with E16G
# notes: 66B02 with A14P, E16G, A74S, K83R, Q108L; not shown: myc/His tag
# B8: C100CX3CR1BII050 (VHH)
# VHH: B1 VHH with D46E
# notes: 66B02 with A14P, D46E, A74S, K83R, Q108L; not shown: myc/His tag
# B9: C100CX3CR1BII047 (VHH)
# VHH: B1 VHH with S11L
# notes: 66B02 with S11L, A14P, A74S, K83R, Q108L; not shown: myc/His tag
# B10: C100CX3CR1BII061 (VHH)
# VHH: B1 VHH with S11L, E16G
# notes: 66B02 with S11L, A14P, E16G, A74S, K83R, Q108L; not shown: myc/His tag
# B11: CX3CR1BII66B02 (S53T, Q108L) (VHH, name in Kabat numbering)
# VHH: B1 VHH with P14A, S53T, S74A, R86K
# notes: Kabat numbering
# B12: CX3CR1BII66B02 (N52S, Q108L) (VHH, name in Kabat numbering)
# VHH: B1 VHH with P14A, N52S, S74A, R86K
# B13: CX3CR1BII66B02 (S53G, Q108L) (VHH, name in Kabat numbering)
# VHH: B1 VHH with P14A, S53G, S74A, R86K
# notes: Kabat numbering
# B14: CX3CR1BII66B02 (S53P, Q108L) (VHH, name in Kabat numbering)
# VHH: B1 VHH with P14A, S53P, S74A, R86K
# notes: Kabat numbering
# B15: CX3CR1BII66B02 (N52Q, Q108L) (VHH, name in Kabat numbering)
# VHH: B1 VHH with P14A, N52Q, S74A, R86K
# notes: Kabat numbering
# B16: CX3CR1BII66B02 (N52T, Q108L) (VHH, name in Kabat numbering)
# VHH: B1 VHH with P14A, N52T, S74A, R86K
# notes: Kabat numbering
# B17: CX3CR1BII66B02 (N52G, Q108L) (VHH, name in Kabat numbering)
# VHH: B1 VHH with P14A, N52G, S74A, R86K
# notes: Kabat numbering
# B18: CX3CR1BIIPMP54H1 (VHH)
# VHH: EVQLVESGGGSVQAGESLRLSCAASGTIFSSNAMAWYRQAPGKQRDLVAGINSVDITKYADSVKGRFTVSRDNAKNTVYLQMNSLKPEDTAVYYCTSDPRRGWNTRYWGQGTQVTVSS
# notes: also called 54H01; not shown: C-terminal c-myc and His6 tags
# B19: CX3CR1BIIPMP54A4 (VHH)
# VHH: B18 VHH with G9R, T27S, D55G, V69I, N104D
# notes: also called 54A04; not shown: C-terminal c-myc and His6 tags
# B20: CX3CR1BIIPMP61C9 (VHH)
# VHH: EVQLVKSGGGSVQAGESLRLSCAASGSIFSSNAMAWYRQALGKQRDLVALIDSAGITKYADSVKGRFTISRDNAKNTVYLQMNRLKPEDTAVYYCASDARRGWNTKYWGQGTLVTVSS
# notes: tested as periplasmic extract; not shown: C-terminal c-myc and His6 tags
# B21: CX3CR1BIIPMP54B2 (VHH)
# VHH: B18 VHH with V69I, Q113L
# notes: as for B20
# B22: CX3CR1BIIPMP61A11 (VHH)
# VHH: B18 VHH with G8R, T27S, G50V, D55G, V69I, R71G, P99A, N104D
# notes: as for B20
# B23: CX3CR1BIIPMP61F4 (VHH)
# VHH: B18 VHH with E16A, T27S, G50V, S53T, D55G, V69I, P99A, N104D, Q113L
# notes: as for B20
# B24: CX3CR1BIIPMP54A5 (VHH)
# VHH: B18 VHH with T27S, D55G, V69I, N104D, Q113L
# notes: as for B20
# B25: CX3CR1BIIPMP61D5 (VHH)
# VHH: B18 VHH with E1K, T27S, P41F, G50L, D55G, V69I, N104D
# notes: as for B20
# B26: CX3CR1BIIPMP54A3 (VHH)
# VHH: B18 VHH with T27S, D55G, V69I, N104D
# notes: as for B20
# B27: CX3CR1BIIPMP54B5 (VHH)
# VHH: B18 VHH with T27S, D55G, V69I, V78A, N104D, Q113L
# notes: tested as periplasmic extract; also called CX3CR1BII54B5; not shown: C-terminal c-myc and His6 tags
# B28: CX3CR1BIIPMP61F10 (VHH)
# VHH: B18 VHH with E1K, V69I
# notes: as for B20
# B29: CX3CR1BIIPMP54H4 (VHH)
# VHH: B18 VHH with T27S, G50V, D55G, V69I, R71G, P99A, N104D, Q113L
# notes: as for B20
# B30: CX3CR1BIIPMP61G2 (VHH)
# VHH: B18 VHH with E6K, T27S, G50L, D55G, V69I, N104D
# notes: as for B20
# B31: CX3CR1BIIPMP54F6 (VHH)
# VHH: B1 VHH with E1K, P14A, R44Q, V56I, S74A, R86K
# notes: as for B20
# B32: CX3CR1BIIPMP61D1 (VHH)
# VHH: B18 VHH with T27S, P41F, G50L, D55G, V69I, N104D
# notes: as for B20
# B33: CX3CR1BIIPMP54B1 (VHH)
# VHH: B18 VHH with T27S, D55G, V69I, V78A, N104D
# notes: as for B20
# Target: T1, human CX3CR1
# Test: fractalkine competition FACS
% block [%],IC50 [nM],Binder
101,2.2,B1
101,16,B2
98.4,190,B3
101,2.2,B4
101,18,B5
99.4,14,B6
101,1.9,B7
101,17,B8
101,2.3,B9
98.9,1.4,B10

# Target: T1, human CX3CR1
# Test: fractalkine competition FACS
# Remark: another data set of the same source
% block [%],IC50 [nM],Binder
98.1,1.3,B11
98,1.7,B12
98.3,1.2,B13
98.2,0.8,B14
97.9,2.1,B15
98,2.8,B16
98,1.1,B17

# Target: T1, human CX3CR1
# Test: A647-fractalkine competition FACS, HEK293-huCX3CR1
# From the text: (§1) Periplasmic extracts were screened in a human CX3CR1/human Fractalkine FACS competition assay to assess the blocking capacity of the expressed VHHs. Human CX3CR1 was presented on CHO cells overexpressing CX3CR1. Both a setup using cells harvested from an actively growing culture and a setup using frozen cells was used. As a detection reagent labeled fractalkine was used (R&D Systems, Minneapolis, Minn., USA) labeled with alexa647 (A647-Fractalkine) at a degree of labeling of 1. To setup the assay, first a titration series of the labeled fractalkine was performed on the CHO-huCX3CR1 cells in order to determine the EC50 value for binding. Initially screening was performed at a higher concentration of fractalkine (3 nM) to increase the assay robustness. To increase the sensitivity of the screening to a maximum, the EC30 concentration (1 nM) was chosen for subsequent screening. In brief 50 μl of periplasmic extract was added to 6 nM labeled fractalkine (50 μ;) and 200 000 CHO-huCX3CR1 cells. After one hour incubation at 4 C, cells were washed three times before read out was performed on a FACS Array (Becton Dickinson). First a gate was set on the intact cells as determined from the scatter profile. Next, dead cells were gated out by their fluorescence profile from the PI stain (Sigma, St Louis, US). The fluorescence profile from the alexa647 label was determined for each sample and used for calculation of blocking capacity. As controls, conditions were taken along where there was no VHH present in the peri extract or a known irrelevant VHH and samples were included where excess cold fractalkine was included. For each sample the percentage block was determined using the control samples to determine the assay window.
# The blocking capacity towards the ligand fractalkine of the VHHs was evaluated in a human CX3CR1 competition FACS as outlined in Example 4. Either CHO-huCX3CR1 cells, BA/F3-huCX3CR1 cells or transiently transfected HEK293T cells were used. The amount of labeled ligand used in the different competition setups was also varied. The IC₅₀ values for VHHs blocking the interaction of human fractalkine to human CX3CR1 are depicted in Table 19.
% block [%],IC50 [nM],Binder
64,10,B18
100,49,B19

# Target: T1, human CX3CR1
# Test: A647-fractalkine competition FACS, HEK293T human CX3CR1
# From the text: as §1
# (§2) For later identified VHHs, a human Fractalkine competition FACS was set up using human or cynomolgus CX3CR1 expressed in HEK293T cells. Both the human and the cynomolgus receptor was transiently transfected in HEK293T cells and transfections were matched by the binding of the labeled ligand, human fractalkine. The competition was evaluated using the EC30 concentration of fractalkine and as such obtained IC50 values are a good estimate of the Ki value, a measure for affinity (Table 22). The experiment was performed as described in Example 4.
% block [%],IC50 [nM],Binder
64,10,B18
100,49,B19

# Target: T2, cynomolgus CX3CR1
# Test: A647-fractalkine competition FACS, HEK293T cynomolgus CX3CR1
# From the text: as §1, §2
% block [%],IC50 [nM],Binder
92,68,B18
91,31,B19

# Target: T2, cynomolgus CX3CR1
# Test: A647-fractalkine competition FACS, cynomolgus against human CX3CR1
# From the text: as §1, §2
row,ratio (cynomolgus/human IC50),Binder
1,6.48,B18
2,0.64,B19

# Target: T1, human CX3CR1
# Test: periplasmic extract, A647-fractalkine competition FACS, CHO-huCX3CR1
# From the text: as §1
row,% block [%],Binder
1,69.4,B20
2,65.3,B21
3,78,B22
4,94.4,B23
5,92.5,B24
6,94.9,B25
7,74.6,B18
8,90.8,B26
9,92.6,B27
10,73.5,B28
11,96,B29
12,82,B30
13,86.6,B19
14,96.6,B31
15,68.4,B32
16,92.1,B33
